The record followed here is publication PMC9045202.

In this test the target is EFG displayed on the surface of E. coli BL21 as a fusion with InaZN and mCherry (BL21-pEImC-EFG) (Escherichia coli (ExPEC strain RS218)) (UniProt P0A6M8). As to the kind of experiment: fluorescence intensity of labelled ligand bound to bacteria, competition; BL21-pEImC-EFG incubated with a mixture of fluor-TF (20 μg/mL) and an excess of unlabeled holo-TF; fluorescence of 10^7 bacterial cells, excitation 485 nm, emission 535 nm.
Sequence of UniProt P0A6M8 (P0A6M8 whole entry, the tested form may be a part): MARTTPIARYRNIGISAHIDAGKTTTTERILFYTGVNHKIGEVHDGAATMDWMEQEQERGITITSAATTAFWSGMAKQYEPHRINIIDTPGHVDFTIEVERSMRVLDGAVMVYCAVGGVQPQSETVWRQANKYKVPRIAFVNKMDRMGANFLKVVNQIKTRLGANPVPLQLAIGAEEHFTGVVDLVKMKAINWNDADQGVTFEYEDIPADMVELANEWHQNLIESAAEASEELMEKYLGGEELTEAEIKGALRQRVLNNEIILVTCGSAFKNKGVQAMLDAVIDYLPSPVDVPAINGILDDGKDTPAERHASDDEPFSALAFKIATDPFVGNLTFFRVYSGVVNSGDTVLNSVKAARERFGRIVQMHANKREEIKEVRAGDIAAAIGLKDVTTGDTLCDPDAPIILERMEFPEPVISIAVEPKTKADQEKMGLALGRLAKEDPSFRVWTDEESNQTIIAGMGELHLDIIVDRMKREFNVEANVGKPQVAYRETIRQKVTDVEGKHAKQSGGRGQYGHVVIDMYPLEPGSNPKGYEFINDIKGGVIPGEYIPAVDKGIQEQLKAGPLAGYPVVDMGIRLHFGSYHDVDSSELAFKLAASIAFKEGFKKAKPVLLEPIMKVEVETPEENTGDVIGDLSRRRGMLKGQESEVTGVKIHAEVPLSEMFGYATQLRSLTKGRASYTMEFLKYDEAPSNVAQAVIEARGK

For “holo-transferrin (iron-saturated holo-TF), unlabeled (from UniProt P02787 20-698) (natural protein)”, the fluorescence intensity of bound fluor-TF with an excess of unlabeled holo-TF was 76.4%.
